From US20230227537A1 (VIB VZW, published 2023)
Where “and” joins values, the source holds several entries; their conditions need not be identical. Equal entries are not always repeated. Where two headings read alike, the source gives them in different places.

Columns and labels:
[1] = target: SARS-CoV-2 RBD protein Avi-tag biotinylated (AcroBiosystems SPD-C82E9) (SARS-CoV-2, UniProt P0DTC2 330-518); experiment: competition AlphaLISA; competitor human ACE2-mFc
BSA [2] = target: T1, BSA (Bos taurus, UniProt P02769); experiment: ELISA on coated BSA, anti-VHH-HRP, OD450 [upper graph]
T1 construct: coated on the ELISA plate; also called negative control antigen
T1 sequence (P02769 25-607 limits assumed): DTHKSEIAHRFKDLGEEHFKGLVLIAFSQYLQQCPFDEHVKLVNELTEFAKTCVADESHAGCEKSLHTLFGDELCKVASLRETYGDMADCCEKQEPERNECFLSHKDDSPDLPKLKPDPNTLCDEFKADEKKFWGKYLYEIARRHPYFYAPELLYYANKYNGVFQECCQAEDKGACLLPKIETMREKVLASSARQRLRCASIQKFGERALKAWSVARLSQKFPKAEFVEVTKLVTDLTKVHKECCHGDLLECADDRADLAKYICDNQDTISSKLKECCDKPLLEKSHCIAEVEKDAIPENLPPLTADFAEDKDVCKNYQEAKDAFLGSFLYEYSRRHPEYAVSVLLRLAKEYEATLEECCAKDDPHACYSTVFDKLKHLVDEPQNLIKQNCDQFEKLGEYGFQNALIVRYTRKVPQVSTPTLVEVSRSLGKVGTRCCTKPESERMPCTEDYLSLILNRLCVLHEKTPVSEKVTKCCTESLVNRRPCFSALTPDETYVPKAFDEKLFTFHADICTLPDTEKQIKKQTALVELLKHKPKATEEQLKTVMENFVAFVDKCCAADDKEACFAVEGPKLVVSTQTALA

[3] = target: T2, Mouse IgG1 Fc fused SARS-CoV-2 RBD (Sino Biological) (SARS-CoV-2; mouse, UniProt P0DTC2 330-518); experiment: ELISA on coated SARS-CoV-2 RBD-muFc, anti-VHH-HRP, OD450 [upper graph]
BSA [4] = target: T1, BSA; experiment: ELISA on coated BSA, anti-VHH-HRP, OD450 [lower graph]
[5] = target: T2, Mouse IgG1 Fc fused SARS-CoV-2 RBD …; experiment: ELISA on coated SARS-CoV-2 RBD-muFc, anti-VHH-HRP, OD450 [lower graph]
[6] = target: SARS-CoV-2 spike, full length, on cells or on pseudotyped/authentic virus (SARS-CoV-2, UniProt P0DTC2 14-1273); experiment: cell-based or functional assay
[7] = target: T2, Mouse IgG1 Fc fused SARS-CoV-2 RBD …; experiment: BLI, RBD-mFc on AMC tips, global 1:1 fit
[8] = target: T3, WT SARS-CoV-2 RBD displayed on Saccharomyces cerevisiae (SARS-CoV-2, UniProt P0DTC2 331-518)
[9] = target: T3, WT SARS-CoV-2 RBD displayed on …; experiment: flow cytometry, yeast cells displaying WT RBD
[10] = target: T2, Mouse IgG1 Fc fused SARS-CoV-2 RBD …
[11] = target: T2, Mouse IgG1 Fc fused SARS-CoV-2 RBD …; remark: listed apart in the source

B1: VHH3.36 (VHH)
VHH: QVQLQESGGGLVQAGDSLRLSCVVSGGTFSSYAMGWFRQAPGKERELVAAINWGGISVYYADSVKGRFTISRDNAENTVYLQMNSLKPEDTAVYYCAADPKGWSEWDMEYWGKGTQVTVSS
% inhibition [1]: 100%
IC50 [1]: 0.562 nM
binding result (BSA [2]): no binding (tested: about 20 µg/ml)
EC50 (read off the curve) [3]: ~0.05 µg/mL

B2: VHH3.77 (VHH)
VHH: QVQLQESGGGLVQAGGSLRLSCVSSGRAFGNGAVGWFRQGPGRPREFVATVSWNGGGTYFAESVRGRFTISRDNAKNTVYLQMNNLKPEDTAVYYCALAGEGTVVSEWDYDYEYWGQGTQVTVSS
% inhibition [1]: 97%
IC50 [1]: 0.723 nM
binding result (BSA [4]): no binding (tested: about 20 µg/ml)
EC50 (read off the curve) [5]: ~0.03 µg/mL

B3: VHH3BE4 (VHH)
VHH: QVQLQESGGGLVQAGGSLRLSCVASGRAFGNGAVGWFRQAPGREREFVATVSWNGGGTYYAESVRGRFTISRDNAKSTVYLQMNSLKPEDTAVYYCASAGEGTVVSEWDYDYDYWGQGTQVTVSS
% inhibition [1]: 100%
IC50 [1]: 0.634 nM

B4: VHH3.17 (VHH)
VHH: QVQLQESGGGLVEAGGSLTLSCAASGRAFGDGAVGWFRQGPGRPREFVATVSWNGGGTYFAESVRGRFTISRDNAKNTVYLQMNNLKPEDTAVYYCALAGEGTVVSEWDYDYEYWGQGTQVTVSS
% inhibition [1]: 99%
IC50 [1]: 1.03 nM
binding result (BSA [2]): no binding (tested: about 20 µg/ml)
EC50 (read off the curve) [3]: ~0.05 µg/mL

B5: VHH3.144 (VHH)
VHH: QVQLQESGGGLVQAGGSLRLSCVASGRAFGNGAVGWFRQAPGREREFVATVSWNGGGTYYAESVRGRFTISRDNAKSTVYLQMNSLKPEDTAVYYCASAGEGTVVSEWDYDYDYWGQGTQVTVSS
% inhibition [1]: 100%
IC50 [1]: 1.12 nM
binding result (BSA [4]): no binding (tested: about 20 µg/ml)

B6: VHH3.29 (VHH)
VHH: QVQLQESGGGLVQAGGSLRLSCVASGRTFSSGGMGWFRQAPGQEREFVAGIGWAGLSSYYLDSVKGRFTISLDNAKNTVYLQMNMLKPEDTGVYYCAADDHGWSAAGMDYLGQGTQVTVSS
% inhibition [1]: 97%
IC50 [1]: 1 nM
binding result (BSA [2]): no binding (tested: about 20 µg/ml)
EC50 (read off the curve) [3]: ~0.03 µg/mL

B7: VHH3.115 (VHH)
VHH: QVQLQESGGGLVQTGGSLRLSCAASGLTFSDIAMGWFRQAPGREREFVATISWSGGGTYYAEPVRGRFAISRDNAKNTVYLQMNSLKPEDTAVYYCAAAGAGTVVSEWDYDYDYWGQGTQVTVSS
% inhibition [1]: 100%
IC50 [1]: 1.08 nM
binding result (BSA [4]): no binding (tested: about 20 µg/ml)
EC50 (read off the curve) [5]: ~0.006 µg/mL

B8: D72-13: VHH72-h1_(G4S)3-VHH72-h1_GS_hIgG1hinge-hIgG1Fc (Fc fusion)
chain: EVQLVESGGGLVQPGGSLRLSCAASGRTFSEYAMGWFRQAPGKEREFVATISWSGGSTYYTDSVKGRFTISRDNAKNTVYLQMNSLRPEDTAVYYCAAAGLGTVVSEWDYDYDYWGQGTLVTVSSGGGGSGGGGSGGGGSEVQLVESGGGLVQPGGSLRLSCAASGRTFSEYAMGWFRQAPGKEREFVATISWSGGSTYYTDSVKGRFTISRDNAKNTVYLQMNSLRPEDTAVYYCAAAGLGTVVSEWDYDYDYWGQGTLVTVSSGS
notes: ExpiCHO; tetravalent
PRNT50, authentic SARS-CoV-2 [6]: 0.1 µg/mL
Kd [7]: < 0.001 nM
koff [7]: < 1e-07 s⁻¹
kon [7]: 2.65e+06 M⁻¹ s⁻¹

B9: VHH3.47 (VHH)
VHH: QVQLQESGGGLVQAGDSLRLSCAASGHNFSTYAMAWFRQAPGTERELVAAISENDVMRYYADSVKGRFTISRDNAKNMAYLQMNSLKVEDTAVYLCAADPKGWSEWDMDYWGKGTQVTVSS
% inhibition [1]: 100%
IC50 [1]: 0.729 nM
EC50 (read off the curve) [5]: ~0.03 µg/mL

B10: VHH3.35 (VHH)
VHH: QVQLQESGGGLVQAGGSLTLSCEVSGRTNDNYGVGWFRQVPGAERELVAAIRWSSISRYYKDSVKGRFTISRDNAKNTVYLQMDMLKAEDTAVYYCAADPAGWSEFGMEYWGKGTQVTVSS
% inhibition [1]: 100%
IC50 [1]: 1.06 nM
binding result (BSA [2]): no binding (tested: about 20 µg/ml)
EC50 (read off the curve) [3]: ~0.04 µg/mL

B11: VHH3.55 (VHH)
VHH: QVQLQESGGGLVQAGGSLRLSCEVSGRTNDNYGVGWFRQVPGAERELVAAIRWSSISRYYKDSVKGRFTISRDNAKNTVYLQMDMLKPEDTAAYYCAADPAGWSEFGMEYWGKGTQVTVSS
EC50 (read off the curve) [8]: ~0.002 µg/mL
concentration at which binding was just below saturation [9]: 10 ng/mL
% inhibition [1]: 100%
IC50 [1]: 0.817 nM
binding result (BSA [4]): no binding (tested: about 20 µg/ml)
EC50 (read off the curve) [5]: ~0.01 µg/mL

B12: VHH3.38 (VHH)
VHH: QVQLQESGGGLVQAGGSLRLSCAASGGTFNNYAMAWFRQAPGQERELVAAMFWSGLPKYYADSVKGRFTISTDDAKNTVYLQMNGLKPEDTAVYYCAADSRGWSDVGGMDYWGKGTQVTVSS
EC50 (read off the curve) [8]: ~0.001 µg/mL
concentration at which binding was just below saturation [9]: 10 ng/mL
% inhibition [1]: 99%
IC50 [1]: 2.01 nM
binding result (BSA [2]): no binding (tested: about 20 µg/ml)
EC50 (read off the curve) [3]: ~0.04 µg/mL

B13: VHH72 - hIgG1.Hinge-hIgG1.Fc (Fc fusion)
VHH-Fc chain: QVQLQESGGGLVQAGGSLRLSCAASGRTFSEYAMGWFRQAPGKEREFVATISWSGGSTYYTDSVKGRFTISRDNAKNTVYLQMNSLKPDDTAVYYCAAAGLGTVVSEWDYDYDYWGQGTQVTVSS
Kd [10]: 0.0874 nM and 0.0895 nM
koff [10]: 0.000252 s⁻¹ and 0.000288 s⁻¹
kon [10]: 2.88e+06 M⁻¹ s⁻¹ and 3.22e+06 M⁻¹ s⁻¹

B14: VHH72_h1(S56A) (VHH)
VHH: EVQLVESGGGLVQPGGSLRLSCAASGRTFSEYAMGWFRQAPGKEREFVATISWSGGATYYTDSVKGRFTISRDNAKNTVYLQMNSLRPEDTAVYYCAAAGLGTVVSEWDYDYDYWGQGTLVTVSS
binding result (BSA [2]): no binding (tested: about 20 µg/ml)

B15: parental VHH72-hIgG1 Fc (P. pastoris supernatant) (Fc fusion)
chain: QVQLQESGGGLVQAGGSLRLSCAASGRTFSEYAMGWFRQAPGKEREFVATISWSGGSTYYTDSVKGRFTISRDNAKNTVYLQMNSLKPDDTAVYYCAAAGLGTVVSEWDYDYDYWGQGTQVTVSS
Kd [10]: 0.0786 nM and 0.0765 nM
koff [10]: 0.000261 s⁻¹ and 0.000283 s⁻¹
kon [10]: 3.33e+06 M⁻¹ s⁻¹ and 3.7e+06 M⁻¹ s⁻¹

B16: VHH2.50 (VHH)
VHH: QVQLQESGGGLVQAGGSLRLSCAASGRTFSSIAMGWFRQAPGKEREFVATISWSGGSTYYADSVKGRFTISRDNAKNTVYLQMNSLKPEDTAVYYCAAAGLGTVVSEWDYDYDYWGQGTQVTVSS
% inhibition [1]: 79%
IC50 [1]: 34.2 nM

B17: VHH3.149 (VHH)
VHH: QVQLQESGGGLVQAGGSLKLSCAASGRTFSSYALGWFRQAPGTEREFVSAINWFGAPTYYADSVKGRFTISRDNAKNTVYLQMDNLKPEDTAVYYCAADSKGWDPQDMDYWGKGTQVTVSS
% inhibition [1]: 98%
IC50 [1]: 0.902 nM
binding result (BSA [4]): no binding (tested: about 20 µg/ml)
EC50 (read off the curve) [5]: ~0.006 µg/mL

B18: D72-16: h1-VHH72-GS-hIgG1hinge-hIgG1Fc (Fc fusion)
chain: EVQLVESGGGLVQPGGSLRLSCAASGRTFSEYAMGWFRQAPGKEREFVATISWSGGSTYYTDSVKGRFTISRDNAKNTVYLQMNSLRPEDTAVYYCAAAGLGTVVSEWDYDYDYWGQGTLVTVSSGS
notes: ExpiCHO
EC50 [11]: 0.00965 µg/mL
IC50, plaque reduction neutralization, authentic SARS-CoV-2 [6]: 0.94 µg/mL
Kd [7]: 0.102 nM
koff [7]: 0.000191 s⁻¹
kon [7]: 1.89e+06 M⁻¹ s⁻¹

B19: D72-02: VHH72-GS-hIgG1hinge-hIgG1Fc (Fc fusion)
chain: QVQLQESGGGLVQAGGSLRLSCAASGRTFSEYAMGWFRQAPGKEREFVATISWSGGSTYYTDSVKGRFTISRDNAKNTVYLQMNSLKPDDTAVYYCAAAGLGTVVSEWDYDYDYWGQGTQVTVSSGS
EC50 [11]: 0.00695 µg/mL
IC50, plaque reduction neutralization, authentic SARS-CoV-2 [6]: 1.01 µg/mL
Kd [7]: 0.142 nM
koff [7]: 0.00026 s⁻¹
kon [7]: 1.83e+06 M⁻¹ s⁻¹

B20: VHH3.83 (VHH)
VHH: QVQLQESGGGLVQPGDSLRLSCVLSGGVFTSYAMGWFRQAPGKEREFLAAITFNSDATYYADSVKGRFTISRDNAKNTAYLQMNSLKPNDTAVYSCAAGGNHYNPQYYHDYDKYDHWGQGTQVTVSS
EC50 (read off the curve) [8]: ~0.003 µg/mL
concentration at which binding was just below saturation [9]: 10 ng/mL
% inhibition [1]: 74%
IC50 [1]: 0.46 nM
